Assay: yeast display, Sf9 membrane polyspecificity reagent, FACS + sequencing; frameworks hold sequencing errors
How it was run: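 Galactose-induced (36–48 hours) yeast carrying a synthetic nanobody display library were exposed to 10% biotinylated, detergent-solubilized Sf9 membrane reagent at 4 °C for 1 hour. FACS followed streptavidin microbead enrichment, using low and high (top ~1%) gates for expression (anti-HA) and reagent binding (streptavidin). Colony PCR, MiSeq 2 × 250 sequencing and CDR-length filtering followed. Labels for polyreactivity reflect the gate of origin.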

Sequence: QVQLVESGGGLVQAGGSLRLSCAASGSTLGYYAMGWYRQAPGKERELVAAITSSDGGTYYADSVKGRFTISRDNAKNTVYLQMNSLKPEDTAVYYCAKRRYTSAFGSWYAYDYWGQGTQVNVSS
- polyreactivity (PSR sort gate): high polyreactivity

Sequence: QVQLVESGGGLVQAGGSLRLSCAASGSTFVFYAMGWYRLAPGKDRELVAINSGGSTYYADSVKGRFTISRDNAKNTVYLQMNSLKPEDTAVYFCAKDPLRVWRFDYWGQGTQVTVSS
- polyreactivity (PSR sort gate): low polyreactivity

Sequence: QVQLVESGGGLVQAGGSLRLSCAASGRTFAYYAMGWYRQAPGKERELVAAITLRSGSTYYADSVKGRFTISRDNAKNTVYLQMNSLKPEDTAVYYCATDSLGVDRPNYNYWGQGTQVTVSS
- polyreactivity (PSR sort gate): low polyreactivity

Sequence: QVQLVESGGGLVQAGGSLRLSCAASGFTFKRYAMGWFRQAPGKERELVSTITSRGGSTYYADSVKGRFTISRDNAKNTVYLQMNSLKPEDTAVYYCVRRYPGLPGWSSYGSYESGYWGQGSQVTVSS
- polyreactivity (PSR sort gate): high polyreactivity

Sequence: QVQLVESGGGLVQAGGSLRLSCADSGRTLGYYAKGWYRQAPGKEREVVAAITSGGRTNYADSVKGRFTISRDNAKNTVYLQMNSLKPEDTAVYYCAAARYLSGGYEKYDYWGQGTQVTVSS
- polyreactivity (PSR sort gate): low polyreactivity

Sequence: QVQLVESGGGLVQAGGRLRLSCAASGSTFVWYAMVWYRQAPGKEREFVATISWSDGSTYYADSVKGRFTISRDNAKNTVYLQLNSLIPEDTAVYYCASDVDRFFTYKYDYWGQGTQVTVSS
- polyreactivity (PSR sort gate): low polyreactivity

Sequence: QVQLVESGGGLVQAGGSLRLSCAASGSIFDINAMGWYRQAPWKERELVAAISLSAGSTYYADSVKGRFTISRDNSKNTVYFQMNSLYPDDAAVFYCNADGWYGYWGQVTQVTVSS
- polyreactivity (PSR sort gate): low polyreactivity

Sequence: QVQLLETCGGLVHAGCTLRLSCAPSRSTFRYNDMGRYRQAPGKERELDASISWSGGDTYYADSVKGRFTISRDNAKNTVYLQMNSLKPEDTAVYYCDKGNIWISRLMDDWGQGTQVTVSS
- polyreactivity (PSR sort gate): low polyreactivity

Sequence: QVQLVESGGGLVQAGGSLRLSCAASGFTFGQYVMGWYRQAPGKERELVAAISFSGGSTYYADSVKGRFTISRDNAKNTVSVQMTSLKPEDTAVYYCAADVNVLYLLRFSHRSNYGYWGQGTQVTVSS
- polyreactivity (PSR sort gate): high polyreactivity

Sequence: QDQLVESGGGLVQAGGSLRLSCAASGSTFLTYAMGWYRQAPGKERELVAAISKTGASTYYADSVKGRFTISRDNAKNTVYLQMNSLKPEDTAVYDCAAGRYTSYSPRYYYWGQGTQVTVSS
- polyreactivity (PSR sort gate): high polyreactivity

Sequence: QDQLVESGGGLVQAGGSLRLSCAASGLTFEVYAMGWYRQAPGKERELVAAISSGGGSKYYADSVKGRFTISRDNAKNTVYLQMISLKPEDTAVYYCNAVAKLYYWRYDYLGQGTQVTVSS
- polyreactivity (PSR sort gate): low polyreactivity

Sequence: QVQLVESGGGLVQAGGSLPLSCAASGRIFRRNAKGWYRPAPGKEREMVAAIRYGGGTTYAHSVKGRFTISRDNAKNTVYLQMNSLKPEDTAVYYCAVGPRASFGYGYWGQGTQVTVSS
- polyreactivity (PSR sort gate): high polyreactivity

Sequence: QVQLVESGGGLVQAGGSLRLSCAASGSTLVVNGMGWYRQAPGKERELVASISSDGSTNYADSVKGRFTISRDNAKNTVYLQMNSLKPEDTAVYYCAADEGTGQASLSSNLYDYWGQGTQVTVSS
- polyreactivity (PSR sort gate): low polyreactivity

Sequence: QVQLVESGGGLVQAGGSLRLSCPASGSTFVKNAMGWYRQAPGKERELVAAITARGGSTFYADSVKGRFTISRDNAKNTVYLQMISLTPEDTSVYYCADNGPRTYRLKDDYWGQGTQVTVSS
- polyreactivity (PSR sort gate): high polyreactivity

Sequence: QVQLVESGGGLVQAGGSLRLRCAASGSTFWGYAMGWYRQAPGKERELVASITWRGGSTYADSVKGRFTISRDNAKNTVYLQMNSLKPEDTAVYYCNALPYRYRRYDYWGQGTQVTVSS
- polyreactivity (PSR sort gate): low polyreactivity

Sequence: QVQLQESGGGLVQAGGSLRLSCAASGYISHADEMGWYRQAPGKVHELVASISNGGSTNYADSVKGRFTISRDNAKNTVYLQMNSLKSEDTAVYYCAAWTGQVDIHYYWGQGTQVTVSS
- polyreactivity (PSR sort gate): low polyreactivity

Sequence: QVQLVESGGGSVQAGGSLRISCAASGSIFSLYAMGWYRQAPGKERELVASISSDGSTYYADSVKGRFTISRDNAKNTVYLQMNSLKPEDTAVNYCATAVYSRYSPYAGYYYWGQGTQVTVSS
- polyreactivity (PSR sort gate): low polyreactivity

Sequence: QVQLVDSGGGLVQAGGSLRLSCAASGRTFGVNAMGWYRQAPGKERELVAAISSGSSTYYADSVKGRFTISRDNAKNTVYLQMNSLKPEDTAVYYCAAKYWSYYQSRSLSYRYFYWGQGTQVTVSS
- polyreactivity (PSR sort gate): low polyreactivity

Sequence: QVQLVESGGGLVQAGGSLRLSCAASGSIFQPNAMGGGGQAPGKERELVASIRGRGGDTYYADSVKGRFTISRDNAKNTVYLQMNSLKPEDTAVYYCAADYRWGQGTQVTVSS
- polyreactivity (PSR sort gate): low polyreactivity

Sequence: QVQLVESGGGLVQAGGSLRLSCAGSGSIFPFYVMGWYRQAPGKEREFVATISSRGGSTYYADSVKGRFTISRDNAKNTVYLQMNSLKPEDTAVYYCAAGWYRTDWGQRLHTYYYWGQGTQVTVSS
- polyreactivity (PSR sort gate): high polyreactivity

Sequence: QVQLVESGGGLVQAGGSLRLSCAASGFIIAQYAMGWYRQAPGKERELVAGITSTGSTNYADSVKGRFTISRDNAKNTVYLQMNSLKPEDTAVYYCNTDYITASAVFDYDYWGQDTQVTVSS
- polyreactivity (PSR sort gate): low polyreactivity

Sequence: QVQLVESGGGLVQARGSLRLSCAASGSTFRINAMGWYRQAPGKERELVAAITSGGSTKYADSVKGRFTISRDNAKNTVYLQMYILKPADTAVYYCNKQGYPFRYFAWYPGYNYWGQGTQVTVSS
- polyreactivity (PSR sort gate): low polyreactivity

Sequence: QVQLVESGGGLVQAGGSLRLSCAASGFIFTTYDMGWYRQAPGKEMELVAAITGSGGRTYYADSVKGRFTISRDNAKNTVYLQMNSLKPEDTAVYYCAARWGNVRFRYGYWGQGTQVTVSS
- polyreactivity (PSR sort gate): high polyreactivity

Sequence: QVQLVESGGGLVQAGGSLRLSCAASGSPFFPYAMGGYRQAPGKERELVAGISSDGGTSYADSVKGRFTISRDNAKNTVYLQMNSLKPEDTAVYYCAKETIGQDPVSGAWARHEYDYWGQGTQVTVSS
- polyreactivity (PSR sort gate): low polyreactivity

Sequence: QVQLVESWGGLVQAGASLRLSSAASGSIFGSYAMGSYRQAPGKERQLVAAITGIGGSTYYADSVKGRFTITRDNAKNTVYLQLNSLKPEDTAVYYCATRVRYRAPVVRGNYWGQGTQVTVSS
- polyreactivity (PSR sort gate): high polyreactivity

Sequence: QVQLVESGGGLVQAGGSLRLSCAASGSTFHRNAMGWYRQAPGKERELVAAISFSGGRTYYADSVKGRFTISRDNAKNTVYLQMNSLKPEDTAVYYCAAVTASPGSYPDDYWGQGTQVTVSS
- polyreactivity (PSR sort gate): low polyreactivity

Sequence: QVQLVESGGGLVQAGGSLRLSCAAYGFTFAAYSMGWYRQAPGKEREFVAAITSRDGTTYYADSVKGRFTISGYNAKNTVYLQMNSLKPEDTAVFYCAKDHFNWGVSEVDSWRQGTQVTVSS
- polyreactivity (PSR sort gate): low polyreactivity

Sequence: QVQLVESGGGLVQAGGSLRLSCAASGSTFLLNTMGWYRQAPGKERELVAVINSDDSTYYADSVKGRFTISRDNAKNTVYLQMNSLKPEDTAVYYCAAEPQYTRHMDSWGQGTQVTVSS
- polyreactivity (PSR sort gate): low polyreactivity

Sequence: QVQLVESGGGLVQAGGSLRLSCAASGRTFYYYAMGWYRQAPGKEREFVAAITYRGDSTNYADSVKGRFTISRDNAKNTVYLQMNSLKPEDTAVYYCAADSPYQIYYYWGQGTQVTVSS
- polyreactivity (PSR sort gate): low polyreactivity

Sequence: QDQLVESGGGLVQAGGSLRLSCAASGSIFRAYAMGWYRQAPGKERELVAAISRSGDSTYYADSVKGRFTISRDNAKNTVYLQMNSLKPEDTAVYYCAAQRKPYVRPSGPYKRRDYWGQGTQVTVSS
- polyreactivity (PSR sort gate): high polyreactivity

Sequence: QVQLVESGGGLVQAGGSLRLSCAASGFIFRAYAKRWYRPAPGKERELFAALTKRSGTTYSADSVKRRFTISRDNAKNTVYVQMNSLKPEDTAVYFCAAKTLYNSGTQDRAMGYWGQGTQVTVSS
- polyreactivity (PSR sort gate): high polyreactivity

Sequence: QVQLVESGGGLVQAGGSLRLSCAASGFIFRYYAMGWYRQAPGKEREFVAGITGTGGSTYYADSVKGRFTISRDNAKNTVYLQMNSLKPEDTAVYYCAADLWYFSSRVRYGYWGQGTQVTVSS
- polyreactivity (PSR sort gate): high polyreactivity

Sequence: QVHHVESGGGLVQAGGSLRLSCAASGFTFDLYATVLSRQAPRKERELVAAITWRGGSTYYADSVKGRFAISRDNAKNTVYLQMNSLQPEDTAVYYCAADYVIVDDAWLITVEMDSWGQGTQVTVSS
- polyreactivity (PSR sort gate): low polyreactivity

Sequence: QVQLVESGGGLVQAGGSLRLSCAASGSTFRWYAMGWYRQAPGKERELVASITRGGGSTYYADSVKGRFTISRDNAKNTVYLQMNSLKPEDTAVYYCAKRSLWSYYEGYYYWGQGTQVTVSS
- polyreactivity (PSR sort gate): high polyreactivity

Sequence: QVQLVESGGGLVQAGGSLRLSCAASGIIFADYAMGWYIQAPGKERELVAAISTSGGSTYYADSVKGRFTISRDNAKNPVYLQMNSLKPEDTAVYYCNAVYYTSYSGYQFVYEYDYWGQGTQVTVSS
- polyreactivity (PSR sort gate): low polyreactivity

Sequence: QVQLVESGGGLVQAGGSLRLSCAASGSTFKGYAMGWYRQAPGKERELVAAISSRTGSTYYADSVKGRFTISRDNAKNTVYLQMNSLKPEDTAVYYCAAPWFRDTRGYSLYDYWGQGTQVTVSS
- polyreactivity (PSR sort gate): high polyreactivity

Sequence: QVQLVESGGGLVQAGGSLRLSCAASGRTFPTNAMGWYRQAPGKERELVARISTRGGSTYYADSVKGRFTISRDNAKNTVYLQMNSLKPEDTAVYYCARRYAVSNQASYYWGQGTQVTVSS
- polyreactivity (PSR sort gate): high polyreactivity

Sequence: QVQLVESGGGLVQAGGSLRLSCAASGRTLSWYAMGWYRQAPGKERELVASISSGGGTYYADSVKGRFTISRDNAKNTVYLQMNSLKPEDTAVYYCAARYHYAKSPYRYYYWGQGTQVTVSS
- polyreactivity (PSR sort gate): high polyreactivity

Sequence: QVQLVESGGGLVQAGGSLRLICAATGLIFPLYDMGWYRQAAGKERELVAAITLGGGGTYYADSVKGRFTISRDNAKNTVYLQMNSLKPEDTAVYYCNADYDIAAQLRTYITFDYWGQGTQVTVSS
- polyreactivity (PSR sort gate): low polyreactivity

Sequence: QVQLVESGGGLVQARGSLRLSCAASGSTFGLYAMGWYRQAPGKERELVAAISYSGSSTYYADSVKGRFTISRDNAKNTVYLQMNSLKPEDTAVYYCAARRSEHGYNYWGQGTQVTVSS
- polyreactivity (PSR sort gate): high polyreactivity

Sequence: QVQLVESGGGLVQAGGSLRVSCAASGRIFFPYDMGWYRQAPGKERELVAAITNSGGRTYYADSVKGRFTISRDKAKNTVYLQMNSLKPEDTAVYYCNADAYEFRWVKHYDYWGQGTQVTVSS
- polyreactivity (PSR sort gate): low polyreactivity

Sequence: QVQLVESGGGLFQAGGSLRLSCAASGSIFVRNAMGWYRKATGKERELVAGISATGGSTYYADSVKGRFTISRDNAKITVYFQMKSLKPEDTAVYYCAKKVSTRFARYRYDYWGQVTQVTVSS
- polyreactivity (PSR sort gate): high polyreactivity

Sequence: QVQLVESGGGLVQAGGSLRLSCAASGRTLYRYAMGWYRQAPGKERELVAAIRSGGRTNYADSVKGRFTISRDNAKNTVYLQMNSLKPEDTAVYYCAARTLRYPSTYDYWGQGTQVTVSS
- polyreactivity (PSR sort gate): high polyreactivity

Reference: the nanobody polyreactivity screen of Harvey et al. (2022)
